Reference: paper PMC9061721 (Nature Communications, 2022)

B1: antibody 28-2 (antibody, V domains shown)
VH: EVQLVESGGGLVQPGGSLRLSCAASGFTFSTYSMNWVRQAPGKGLEWLSYISTSSSTIDYADSVKGRFTISRDNAKNSLYLQMNSLRDEDTAVYYCARDRGCSSTNCYVVGYYFYGMDVWGQGTTVTVSS
VL: DIQMIQSPSSVSASVGDRVTITCRASQGISSYLAWYQQKPGKAPKLLIYAASRLQSGVPSRFSGSGSGTDFTLTISGLQPEDFATYHCQQANSFPLTFGQGTRLEIK
B2: antibody 28-4 (antibody, V domains shown)
VH: EVQLVQSGGGLVQPGGSLGLSCAASGFTFSNYNMNWVRQAPGKGLEWLAYISGSSNTIFYADSVKGRFTISRDNAKNSLHLQMSSLRDEDTAVYYCARDRGCNSNICYVVGYYFYGMDDWGQGTTVTVSS
VL: DIQMTQSPSSVSASVGDRVTITCRASQAITSYLVWYQQKPGKAPKLLIYDAARLESGVPSRFSGSGSGTHFTLTINNLQPEDFATYYCQQADSFPLTFGQGTRLEIK
B3: antibody 28-6 (antibody, V domains shown)
VH: EVQLVQSGGGLAQPGGSLRLSCTASGFAFSSYGMNWVRQTPGKGLEWVSYISSGSTIIDYAGSVKGRFTISRDNAKNSLHLEMNSLRDEDTAVYYCARDRGCSSTTCYVIGYYYYGMDVWGQGTTVTVSS
VL: DIQMTQSPSSVSASVGDRVTITCRASQGINRRLVWYQQKPGKVPKLLIYDASSLQCGVPSRFSGSGSGTDFTITISSLQPEDFATYYCQQADSFPLTFGQGTRLEIK
B4: 3I14 (antibody, V domains shown)
VH: QVQLLESGGGVVQPGRSLRLSCAASGFTFSNYGMHWVRQAPGKGLEWVAIISFDGSKKYYANSVKGRSTISRDNSKNTLSLQMNSLGPEDTALYYCAKLPSPYYFDSRFVWVAASAFHFWGQGILVTVSS
VL: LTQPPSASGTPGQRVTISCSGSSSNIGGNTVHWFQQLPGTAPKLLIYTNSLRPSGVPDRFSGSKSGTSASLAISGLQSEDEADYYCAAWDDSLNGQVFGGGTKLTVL
notes: source: Expi CHO cells, cotransfected, purified (Protein A Agarose)

What was measured:
[1] = molecular target: recombinant human insulin (Homo sapiens, UniProt P01308); assay: ELISA; settings: both partners purified
Sequence of recombinant human insulin (P01308 whole entry, looked up): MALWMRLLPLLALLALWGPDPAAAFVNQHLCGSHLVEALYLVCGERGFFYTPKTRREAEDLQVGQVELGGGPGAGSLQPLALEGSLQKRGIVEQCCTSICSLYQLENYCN

[2] = molecular target: T1, H3 peptide 36-57HA2 (wild type) (Influenza A virus A/Hong Kong/1/1968 …, UniProt Q91MA7, strain); assay: ELISA; settings: both partners purified
T1 construct: source: synthetic peptide

Row | Binder | binding result [1] | binding result [2]
1 | B1 | no binding | –
2 | B2 | no binding | –
3 | B3 | no binding | –
4 | B4 | – | binds
